Measured values published in patent publication US10808009B2, “Peptide conjugates” (BIONIZ, LLC, priority 2011, dated 2020).
No end group written: not given here. MAL‑PEG24 = bi-functional PEG24 molecule (Mal-PEG24)

Tests used:
Assay type in all cases: cell-based
IL-2 = IL-2 (Homo sapiens, UniProt P60568); assay: CTLL2 proliferation assay (WST-1), IL-2, dual peptide; settings: CTLL2 cells, IL-2 5 u/ml and 10 u/ml, increasing BNZ132-PEG-130 (0.1-10 uM)
IL-15 = IL-15 (Homo sapiens, UniProt P40933); assay: CTLL2 proliferation assay (WST-1), IL-15, dual peptide; settings: CTLL2 cells, IL-15 2.5 ng/ml and 5 ng/ml, increasing BNZ132-PEG-130 (0.1-10 uM)
IL-6 = assay: T1165 proliferation assay (WST-1), IL-6, dual peptide; settings: T1165 cells, IL-6 0.1 ng/ml, increasing BNZ132-PEG-130

IL-2, sequence (P60568 21-153): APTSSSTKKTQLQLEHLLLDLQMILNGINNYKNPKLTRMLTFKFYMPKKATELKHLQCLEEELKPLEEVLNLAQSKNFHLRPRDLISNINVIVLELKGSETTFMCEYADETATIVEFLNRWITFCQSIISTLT
IL-15, sequence (P40933 49-162): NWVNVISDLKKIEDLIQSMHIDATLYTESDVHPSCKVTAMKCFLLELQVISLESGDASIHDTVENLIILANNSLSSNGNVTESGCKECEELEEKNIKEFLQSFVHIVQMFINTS

IKEFLQSFIHIVQSIINT (SEQ ID NO: 130)—MAL-PEG24—SLTHLIERSSRAVLQSLLRASRQ (SEQ ID NO: 131) (linker (positions not given here) via MAL‑PEG24; also: MAL-PEG24 attachment sites not given here) [BNZ132-PEG-130, BNZ132-1 conjugated to BNZ130 via a PEG24 linker; dual peptide antagonist]
inhibited in a dose response manner: inhibition of IL-2-induced proliferation (IL-2) | inhibition of IL-15-induced proliferation (IL-15) | inhibition of IL-6-induced proliferation (IL-6)
